Results from patent US8367615B2, “Stimulation of neuron regeneration by secretory leukocyte protease inhibitor” (Research Foundation of City University of New York, priority 2006, dated 2013).

How the values were obtained:
[1] = system: transected nerve fibers in the spinal cord; conditions: in vivo injection; previously established (WO 01/85981); cited from earlier work
DRG neurons = assay: Microarray analysis of gene expression in DRG neurons; format: cell-based; conditions: DRG neurons that received dbcAMP
Excerpt: The effects of cAMP were the result of its ability to induce gene transcription.

older neurons = conditions: cAMP levels elevated by treatment, previously established (WO 01/85981); cited from earlier work
[2] = system: dorsal root ganglia (DRG) neurons; assay: Neurite outgrowth of DRG neurons on MAG-expressing CHO cell monolayers; format: cell-based, rat
Description: FIGS. 1A and 1B are a panel of four photographs and a bar graph, respectively, showing that SLPI reverses inhibition by MAG for dorsal root ganglia (“DRG”) neurons. DRG neurons from post-natal day 6 rats were treated with 2, 5, or 10 μg/ml SLPI, plated onto monolayers of either control or MAG-expressing Chinese hamster ovary (“CHO”) cells, and incubated for 16 hours. Neurons were stained for βIII tubulin and neurite length was quantified using the METAMORPH image analysis software. Data are presented ±SEM.

cortical neurons = assay: Neurite outgrowth of cortical neurons on central nervous system myelin; format: cell-based; conditions: 5 and 10 μg/ml, post-natal day 1 rat cortical neurons on CNS myelin
Description: FIGS. 2A and 2B are a panel of four photographs and a bar graph, respectively, showing that SLPI enhances neurite outgrowth on myelin for cortical neurons. Cortical neurons from post-natal day 1 rats were treated with 1 mM dibutyrl cAMP (dbcAMP) and 5 or 10 μg/ml SLPI, and plated onto 8-well chamber slides coated with central nervous system myelin (1 μg per well). Neurons were incubated for 24 hours and immunostained for βIII tubulin. The bar graph depicts average neurite length ±SEM.
Unlike DRG neurons, cortical neurons were inhibited by MAG and myelin at post-natal day 1.

adult DRG neurons = assay: In vivo intrathecal delivery, then neurite outgrowth of adult DRG neurons on MAG-expressing CHO cells; set-up: species or system rat; conditions: 2 and 5 μg/kg/hr intrathecal for 24 hours in adult rats, neurons plated on MAG-expressing CHO cells
Description: FIGS. 3A and 3B are a panel of four photographs and a bar graph, respectively, showing that in vivo delivery of SLPI overcomes MAG inhibition for adult DRG neurons. DRG neurons from adult rats that received infusion of 1, 2, or 5 μg/kg/hr SLPI into the spinal cord for 24 hours were plated onto control or MAG-expressing CHO cells. Neurons were incubated for 16 hours and stained for βIII tubulin. The bar graph depicts average neurite length ±SEM.
SLPI was delivered to the spinal cord by a pump.

[3] = Tolerability on administration to live animals; format: in vivo
optic nerve = assay: Optic nerve crush, GAP-43 staining of regenerating axons; format: in vivo, rat; conditions: single intravitreal injection of 10 micrograms after optic nerve crush; two weeks; adult male Fischer rats
Description: SLPI's ability to promote axonal regeneration in vivo in the optic nerve was investigated. Adult male Fischer rats (200-300 g, Charles River Laboratories) were anesthetized with isofluorane and placed in a stereotaxic frame. Optic nerve crush was performed as follows. The right optic nerve was exposed and the meninges were removed. The nerve was then crushed for 10 seconds with fine forceps at a distance of 2 mm behind the eye. Special care was taken to avoid injury to the opthalmic artery. After closing the incision, the animal received a single intravitreal injection of either 5 microliters sterile saline or 10 micrograms of recombinant human SLPI (R&D Systems; 2 micrograms/microliter in 5 microliters sterile saline) in the right eye. After a two-week post-surgical survival period, the animals were sacrificed by transcardial perfusion with 4% paraformaldehyde and the optic nerves were dissected. Nerves were sectioned at a thickness of 20 microns and thaw-mounted onto gelatin-coated slides. Sections were immunostained for GAP-43 using a polyclonal sheep anti-GAP-43 antibody diluted 1:1000 in a solution of 5% rabbit serum, 2% BSA, and 0.1% Tween in Tris-buffered saline (TBS). […] Slides were coverslipped with Permafluor mounting medium (Thermo) and viewed under fluorescence. […]

## CCCC(=O)Nc1ncnc2c1ncn2[C@@H]1O[C@@H]2COP(=O)(O)O[C@H]2[C@H]1OC(=O)CCC [dbcAMP, dibutyrl cAMP]
[1]
  regeneration of transected nerve fibers in the spinal cord: led to regeneration
DRG neurons
  expression of SLPI: greatly increased
Older neurons
  inhibition by MAG and myelin of nerve fiber growth: inhibition was reversed

B1: secretory leukocyte protease inhibitor (protein, UniProt P03973 26-132, looked up)
Antileukoproteinase: SGKSFKAGVCPPKKSAQCLRYKKPECQSDWQCPGKKRCCPDTCGIKCLDPVDTPNPTRRKPGKCPVTYGQCLMLNPPNFCEMDGQCKRDLKCCMGMCGKSCVSPVKA
[2]; 5 and 10 μg/ml, post-natal day 6 rat DRG neurons on MAG-expressing CHO cells
  neurite outgrowth on MAG, most effective concentrations: most extensive growth
[2]; post-natal day 6 rat DRG neurons treated with 2, 5 or 10 μg/ml, on MAG-expressing CHO cells, 16 hours
  neurite outgrowth on MAG: significantly increased
Cortical neurons
  neurite outgrowth on myelin, effect compared with 1 mM dbcAMP: equivalent to that seen with dibutyryl AMP (dbcAMP)
Cortical neurons; 24 hours
  neurite outgrowth on myelin: significantly increased
Adult DRG neurons
  MAG inhibition of DRG neurons after intrathecal delivery: blocks MAG inhibition
Adult DRG neurons; 16 hours
  neurite outgrowth after intrathecal delivery: significant increases
[3]
  toxicity when administered to live animals: non-toxic
Optic nerve
  GAP-43 positive axons in the crushed optic nerve: numerous GAP-43 positive axons
  axons extending beyond the lesion site: several of them extend beyond the lesion site
